Data published in US11746139B2, “IL-7Rαγc binding compounds” (MEDIKINE, INC., priority 2020, dated 2023).

Legend:
IL-7Rα = IL-7Rα (Homo sapiens, UniProt P16871); assay: Competition binding ELISA with bn407::NA-HRP precomplex; conditions: bn407:NA-HRP 10 nM final; read-out: Competitive Binding ELISA bn407:NA-HRP (10 nMf) IC50 M
Rγc subunit = biological target: T1, Rγc subunit (Homo sapiens, UniProt P31785); assay: Phage competitive binding assay characterizing the Rγc ligand binding site; conditions: for Competition with Phage Clone SEQ ID NO: 198 (Family 1A) for binding to the Rγc subunit: phage clone 198, immobilized Rγc ECD; for Competition with Phage Clone SEQ ID NO: 224 (Family 1B) for binding to the Rγc subunit: phage clone 224, immobilized Rγc ECD; for Competition with Phage Clone SEQ ID NO: 236 (Family 2) for binding to the Rγc subunit: phage clone 236, immobilized Rγc ECD; for Competition with Phage Clone SEQ ID NO: 248 (Family 3) for binding to the Rγc subunit: phage clone 248, immobilized Rγc ECD; for Competition with Phage Clone SEQ ID NO: 266 (Family 4) for binding to the Rγc subunit: phage clone 266, immobilized Rγc ECD; for Competition with Phage Clone SEQ ID NO: 930 (Family 5) for binding to the Rγc subunit: phage clone 930, immobilized Rγc ECD
T1 construct: purchased ACRObiosystems, Inc. ILG-H5256
T1 sequence (P31785 23-254): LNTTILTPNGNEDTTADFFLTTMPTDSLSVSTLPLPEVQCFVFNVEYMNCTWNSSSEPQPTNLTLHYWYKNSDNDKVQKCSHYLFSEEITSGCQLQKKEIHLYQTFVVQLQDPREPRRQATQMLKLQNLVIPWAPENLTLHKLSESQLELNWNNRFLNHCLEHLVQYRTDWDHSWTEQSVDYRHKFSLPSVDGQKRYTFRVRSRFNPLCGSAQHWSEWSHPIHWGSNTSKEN

IL-7Rα subunit = IL-7Rα subunit (Homo sapiens, UniProt P16871); assay: Phage competitive binding assay characterizing the IL-7Rα ligand binding site
Chain of IL-7Rα subunit (P16871 21-236): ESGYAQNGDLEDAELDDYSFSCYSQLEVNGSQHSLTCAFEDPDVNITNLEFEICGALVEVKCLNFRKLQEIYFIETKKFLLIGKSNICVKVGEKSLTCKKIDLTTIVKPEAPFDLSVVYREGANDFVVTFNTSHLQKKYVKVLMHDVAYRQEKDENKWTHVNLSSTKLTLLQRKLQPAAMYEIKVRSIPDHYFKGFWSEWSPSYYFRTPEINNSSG

Chain of IL-7Rα (P16871 21-236): as above

| IC50 (IL-7Rα) [nM] | Competition with Phage Clone SEQ ID NO: 930 (Family 5) for binding to the Rγc subunit (Rγc subunit) | Competition with Phage Clone SEQ ID NO: 5 (Family 1) for binding to the IL-7Rα subunit (IL-7Rα subunit; phage clone 5, immobilized IL-7Rα ECD) | Competition with Phage Clone SEQ ID NO: 43 (Family 3A) for binding to the IL-7Rα subunit (IL-7Rα subunit; phage clone 43, immobilized IL-7Rα ECD) | Competition with Phage Clone SEQ ID NO: 104 (Family 3B) for binding to the IL-7Rα subunit (IL-7Rα subunit; phage clone 104, immobilized IL-7Rα ECD) | Competition with Phage Clone SEQ ID NO: 313 (Family 2) for binding to the IL-7Rα subunit (IL-7Rα subunit; phage clone 313, immobilized IL-7Rα ECD) | Competition with Phage Clone SEQ ID NO: 965 (N/A) for binding to the IL-7Rα subunit (IL-7Rα subunit; phage clone 965, immobilized IL-7Rα ECD) | Competition for binding to the binding site with the group of Rγc ligands (Rγc subunit) | Molecule | Competition with Phage Clone SEQ ID NO: 198 (Family 1A) for binding to the Rγc subunit (Rγc subunit) | Competition with Phage Clone SEQ ID NO: 224 (Family 1B) for binding to the Rγc subunit (Rγc subunit) | Competition with Phage Clone SEQ ID NO: 236 (Family 2) for binding to the Rγc subunit (Rγc subunit) | Competition with Phage Clone SEQ ID NO: 248 (Family 3) for binding to the Rγc subunit (Rγc subunit) | Competition with Phage Clone SEQ ID NO: 266 (Family 4) for binding to the Rγc subunit (Rγc subunit) |
| --- | --- | --- | --- | --- | --- | --- | --- | --- | --- | --- | --- | --- | --- |
| 705 |  |  |  |  |  |  |  | CC[C@H](C)[C@H](N)C(=O)N1CCC[C@H]1C(=O)N[C@@H](Cc1c[nH]c2ccccc12)C(=O)N[C@H]1CSSC[C@@H](C(=O)N[C@@H](C)C(=O)N[C@@H](Cc2c[nH]c3ccccc23)C(=O)N[C@@H](CC(C)C)C(=O)N[C@@H](CCCNC(=N)N)C(=O)N[C@@H](CCC(N)=O)C(=O)N[C@@H](CCSC)C(=O)NCC(=O)NCC(=O)O)NC(=O)[C@H](CCC(N)=O)NC(=O)[C@H](CC(C)C)NC(=O)CNC(=O)CNC(=O)[C@@H]2CCCN2C(=O)[C@H](CC(=O)O)NC(=O)[C@H](CC(C)C)NC(=O)[C@H]([C@@H](C)O)NC1=O [SEQ ID NO: 420, I P W C T L D P G G L Q C A W L R Q M] |  |  |  |  |  |
|  | − |  |  |  |  |  |  | D C S M W E J G V E L C W [SEQ ID NO: 224] | + (Rγc ligand competes with phage binding.) | + (Rγc ligand competes with phage binding.) | + (Rγc ligand competes with phage binding.) | + (Rγc ligand competes with phage binding.) | + (Rγc ligand competes with phage binding.) |
|  | − |  |  |  |  |  |  | M C W L E W G E W V G S C L [SEQ ID NO: 236] | + (Rγc ligand competes with phage binding.) | + (Rγc ligand competes with phage binding.) | + (Rγc ligand competes with phage binding.) | + (Rγc ligand competes with phage binding.) | + (Rγc ligand competes with phage binding.) |
|  | − |  |  |  |  |  |  | R T C T E W E N V V L C W V [SEQ ID NO: 202] | +^1 (Rγc ligand competes with phage binding.) | + (Rγc ligand competes with phage binding.) | + (Rγc ligand competes with phage binding.) | + (Rγc ligand competes with phage binding.) | + (Rγc ligand competes with phage binding.) |
|  |  | 0 | 0 | 0 | 0 | 0 |  | V V C Q D W E G V E L C W Q [SEQ ID NO: 965] |  |  |  |  |  |
|  | − |  |  |  |  |  | does not compete | Y D C R I A Q V G E L C D L [SEQ ID NO: 58, IL-2Rβ Ligand, reference compound] | − | − | − | − | − |

| Molecule | IC50 (IL-7Rα) [nM] | Competition with Phage Clone SEQ ID NO: 930 (Family 5) for binding to the Rγc subunit (Rγc subunit) | Competition with Phage Clone SEQ ID NO: 5 (Family 1) for binding to the IL-7Rα subunit (IL-7Rα subunit; phage clone 5, immobilized IL-7Rα ECD) | Competition with Phage Clone SEQ ID NO: 43 (Family 3A) for binding to the IL-7Rα subunit (IL-7Rα subunit; phage clone 43, immobilized IL-7Rα ECD) | Competition with Phage Clone SEQ ID NO: 104 (Family 3B) for binding to the IL-7Rα subunit (IL-7Rα subunit; phage clone 104, immobilized IL-7Rα ECD) | Competition with Phage Clone SEQ ID NO: 313 (Family 2) for binding to the IL-7Rα subunit (IL-7Rα subunit; phage clone 313, immobilized IL-7Rα ECD) | Competition with Phage Clone SEQ ID NO: 965 (N/A) for binding to the IL-7Rα subunit (IL-7Rα subunit; phage clone 965, immobilized IL-7Rα ECD) | Competition for binding to the binding site with the group of Rγc ligands (Rγc subunit) | Competition with Phage Clone SEQ ID NO: 198 (Family 1A) for binding to the Rγc subunit (Rγc subunit) | Competition with Phage Clone SEQ ID NO: 224 (Family 1B) for binding to the Rγc subunit (Rγc subunit) | Competition with Phage Clone SEQ ID NO: 236 (Family 2) for binding to the Rγc subunit (Rγc subunit) | Competition with Phage Clone SEQ ID NO: 248 (Family 3) for binding to the Rγc subunit (Rγc subunit) | Competition with Phage Clone SEQ ID NO: 266 (Family 4) for binding to the Rγc subunit (Rγc subunit) |
| --- | --- | --- | --- | --- | --- | --- | --- | --- | --- | --- | --- | --- | --- |
| S L L K C Y N A S T C A S V F [SEQ ID NO: 930] |  | + (Rγc ligand competes with phage binding.) |  |  |  |  |  |  | −^2 | − | − | − | − |
